From US20120301476A1 (TORAY INDUSTRIES, published 2012)

Experiments:
[1] = target: T1, peptide of SEQ ID NO: 69 (partial sequence in the polypeptide of SEQ ID NO: 37) (human); test: ELISA on immobilised synthetic peptides
T1 peptide: QQPQAASPSVPE
Procedure: Each peptide was dissolved in 0.1M sodium carbonate buffer (pH 9.6) at a concentration of 30 μg/ml, added to a 96-well plate (Nunc, Product No. 436006) at 100 μl per well, and then left to stand at 4° C. overnight. The solution was discarded, 10 mM ethanolamine/0.1M sodium carbonate buffer (PH 9.6) was added at 200 μl per well, and then the plate was left to stand at room temperature for 1 hour. The solution was discarded, the plate was washed twice with PBS (PBST) containing 0.5% Tween20, so that the plate with each peptide immobilized thereto was prepared.
A cell culture supernatant containing the human-chicken chimeric monoclonal antibody (#1) and the mouse monoclonal antibodies (#2, #3, #4, #5, and #6) obtained in Example 4 (2) was added to the plate at 50 μl per well. After 1 hour of shaking at room temperature, the solution was removed, and then the plate was washed three times with PBST. Next, an HRP-labeled anti-human IgG (Invitrogen) antibody diluted 3000- to 4000-fold with PBST (a secondary antibody solution) was added to each well of the human-chicken chimeric monoclonal antibody and an HRP-labeled anti-mouse IgG (Invitrogen) antibody diluted 3000- to 4000-fold with PBST (a secondary antibody solution) was added to each well of the mouse monoclonal antibody, at 50 μl per well, and then the solution was removed, followed by six times of washing with PBST.
A TMB substrate solution (Thermo) was added at 100 μl per well, and the plate was left to stand for 15 to 30 minutes for coloring reaction. After color development, 1N sulfuric acid was added at 100 μl per well to stop the reaction and then absorbances at 450 nm and 595 nm were measured using an absorption spectrometer. As a result, the polypeptide of SEQ ID NO: 37 was identified as a CAPRIN-1 partial sequence that is recognized by all of the anti-CAPRIN-1 monoclonal antibodies #1 to #6. Furthermore, the peptide of SEQ ID NO: 69 was identified as a partial sequence in the above polypeptide of SEQ ID NO: 37, which is recognized by the monoclonal antibodies #1, #4, and #5. […]

[2] = target: T2, human CAPRIN-1 protein on the cell surfaces of human cancer cell lines and in human cancer tissues (human, UniProt Q14444 2-709); test: cell-based or functional assay
T2 sequence (looked up): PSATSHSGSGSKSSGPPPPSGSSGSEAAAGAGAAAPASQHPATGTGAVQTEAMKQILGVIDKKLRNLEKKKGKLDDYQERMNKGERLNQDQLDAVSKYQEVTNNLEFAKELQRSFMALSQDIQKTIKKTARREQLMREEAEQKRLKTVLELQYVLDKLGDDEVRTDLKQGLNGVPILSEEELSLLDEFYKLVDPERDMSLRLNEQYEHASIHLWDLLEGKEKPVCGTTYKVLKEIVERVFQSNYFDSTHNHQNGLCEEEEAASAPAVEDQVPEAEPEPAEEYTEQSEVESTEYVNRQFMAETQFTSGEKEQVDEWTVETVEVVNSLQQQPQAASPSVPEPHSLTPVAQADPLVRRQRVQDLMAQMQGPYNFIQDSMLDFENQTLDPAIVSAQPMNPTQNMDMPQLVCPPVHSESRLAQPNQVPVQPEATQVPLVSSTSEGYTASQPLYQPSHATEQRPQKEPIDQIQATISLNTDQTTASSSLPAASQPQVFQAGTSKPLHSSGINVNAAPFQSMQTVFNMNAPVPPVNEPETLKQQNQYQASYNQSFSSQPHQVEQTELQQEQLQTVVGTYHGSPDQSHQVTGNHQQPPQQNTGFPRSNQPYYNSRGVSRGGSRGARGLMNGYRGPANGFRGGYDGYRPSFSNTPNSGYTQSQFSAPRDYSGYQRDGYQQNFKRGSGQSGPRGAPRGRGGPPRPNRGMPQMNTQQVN

B1: human-chicken chimeric antibody #1 having the chicken monoclonal antibody #1 variable region (antibody, V domains shown)
VH: AVTLDESGGGLQMSRGGLSLVCKASGFDFSSYQMNWIRQAPGKGLEFVAAINKFGNSTGHGAAVKGRVTISRDNGQSTVRLQLNNLRAEDTAIYFCTKHAYGYCGSGTWCAAGEIDAWGHGTEVIVSS
VL: QAASTQPSSVSANPGETVEITCSGGGSYSYGWFQQKSPGSAPVTVIYYNNKRPSDIPSRFSGSKSGSTGTLTITGVQADDEAVYYCGSGDSTDTAVFGAGTTLTVLG
notes: also called anti-CAPRIN-1 antibody #1; human-chicken chimeric monoclonal antibody (#1); not shown: human IgG1 H-chain constant region; human IgG1 L-chain constant region
binding result [1]: binds | cytotoxic activity (ADCC) against A549 [2]: 36.3% | cytotoxic activity (ADCC) against ACHN [2]: 26% | cytotoxic activity (ADCC) against AML5 [2]: 13.1% | cytotoxic activity (ADCC) against Caki-1 [2]: 27% | cytotoxic activity (ADCC) against KYSE180 [2]: 27.6% | cytotoxic activity (ADCC) against MDA-MB-157 [2]: 40% | cytotoxic activity (ADCC) against MNK28 [2]: 21.7% | cytotoxic activity (ADCC) against MNK45 [2]: 25.3% | cytotoxic activity (ADCC) against QG56 [2]: 33% | cytotoxic activity (ADCC) against Ramos [2]: 11.7% | cytotoxic activity (ADCC) against SW480 [2]: 26.9% | cytotoxic activity (ADCC) against SW756 [2]: 29.7% | cytotoxic activity (ADCC) against T24 [2]: 25.6% | cytotoxic activity (ADCC) against T98G [2]: 18% | cytotoxic activity (ADCC) against U373 [2]: 23.3%
